B1: 23B8 (antibody, V domains shown)
VH: QVTLKESGGGLVKPGGSLRLSCAASGFPFSNAWMNWVRQAPGKGLEWVGHIKSKTDGGTTDYAAPVKGRFTISRDDSKNMVFLQMNSLKTEDTAVYYCTTDRAYCGGDCSHYYYHDLDVWGQGTTVTVSS
notes: Heavy-chain antibody without light chain; also called anti-TFR1 antibody 23B8
B2: JR141-N (antibody, V domains shown)
VH: EVQLVQSGAEVKKPGESLKISCKGSGYSFTNYWLGWVRQMPGKGLEWMGDIYPGGDYPTYSEKFKVQVTISADKSISTAYLQWSSLKASDTAMYYCARSGNYDEVAYWGQGTLVTVSS
VL: DIVMTQTPLSLSVTPGQPASISCRSSQSLVHSNGNTYLHWYLQKPGQSPQLLIYKVSNRFSGVPDRFSGSGSGTDFTLKISRVEAEDVGVYYCSQSTHVPWTFGQGTKVEIK
notes: also called positive control; JR141 VH and VL on human IgG1 N297A
B3: 24C9 (antibody, human IgG1, V domains shown)
VH: EVQLVQSGGGVVQPGRSLRLSCAASGFTLSSYGMYWVRQAPGKGREWVAFIRFDESKKYYADSVKGRFTISRDNSKNTLYLQMNSLRAEDTAVYYCARDGEGGYCTNGVCHGLDVWGQGTTVTVSS
notes: Heavy-chain antibody without light chain; also called anti-TFR1 antibody 24C9
B4: 24A1 (antibody, human IgG1, V domains shown)
VH: EVQLVESGGGLVQPGGSLRLTCAASGFTFSSYAMSWVRQAPGKGLERVSEISGSGSSTNYADSVKGRFTISRDNSKNTLYLQMNSLRAEDTAVYYCAKDDSSGWAFNIWDQGTVVTVSS
notes: Heavy-chain antibody without light chain; also called anti-TFR1 antibody 24A1
B5: 24G5 (antibody, human IgG1, V domains shown)
VH: B4 VH with E1Q, V2L, V5Q, Y32F, G53D, S56G, S57N, N59Y
notes: Heavy-chain antibody without light chain; also called anti-TFR1 antibody 24G5

The values below come from patent US20260078197A1 (BIOCYTOGEN PHARMACEUTICALS BEIJING, published 2026).

Numbering of substitutions follows the chain as printed. Numbers in names are those of the source.

One experiment deals with T1, human TFR1 expressed on CHO-S cells (human, UniProt P02786 1-760).
T1 construct: CHO-S cells transfected with a vector expressing human TFR1; also called hTFR1; CHO-S-hTFR1 cells
T1 sequence (P02786 whole entry): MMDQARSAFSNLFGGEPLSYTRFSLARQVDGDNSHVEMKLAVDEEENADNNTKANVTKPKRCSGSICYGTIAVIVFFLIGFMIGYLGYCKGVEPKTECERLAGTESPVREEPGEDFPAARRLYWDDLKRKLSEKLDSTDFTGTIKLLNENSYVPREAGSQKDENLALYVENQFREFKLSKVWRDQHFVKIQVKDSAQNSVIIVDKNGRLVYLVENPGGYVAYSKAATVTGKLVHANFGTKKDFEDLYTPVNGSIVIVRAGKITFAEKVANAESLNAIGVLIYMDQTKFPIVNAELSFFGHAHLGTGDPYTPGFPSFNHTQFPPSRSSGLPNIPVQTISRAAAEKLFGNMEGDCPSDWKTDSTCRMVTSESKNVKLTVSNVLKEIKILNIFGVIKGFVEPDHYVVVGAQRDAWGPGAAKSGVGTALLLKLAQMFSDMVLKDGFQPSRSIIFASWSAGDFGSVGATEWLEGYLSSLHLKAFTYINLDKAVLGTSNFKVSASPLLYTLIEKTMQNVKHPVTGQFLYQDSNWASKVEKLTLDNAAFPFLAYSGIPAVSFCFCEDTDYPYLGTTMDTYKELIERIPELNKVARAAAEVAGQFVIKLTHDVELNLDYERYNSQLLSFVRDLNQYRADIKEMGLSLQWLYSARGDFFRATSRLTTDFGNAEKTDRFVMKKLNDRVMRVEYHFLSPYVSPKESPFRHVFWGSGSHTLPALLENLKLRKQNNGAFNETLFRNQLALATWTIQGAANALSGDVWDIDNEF
As to the kind of experiment: flow cytometry on CHO-S-hTFR1 cells; anti-hIgG-Fc Alexa Fluor 647 secondary. How it is done:
(§1) CHO-S-hTFR1 cells or CHO-S-fasTFR1 cells were transferred to a 96-well plate at a density of 10⁵ cells/well respectively. Serially diluted sample anti-TFR1 antibodies were added to the 96-well plate, and incubated at 4° C. for 30 minutes. PBS was used as a negative control (NC).
(A flow cytometer gives signals particle by particle.)
Consider B1, for which the “Percentage of Positive Cells” value turned out to be 38.8%.
Still for that read-out and setting: next, B2: 45%.
In the case of B3, the “Percentage of Positive Cells” value stood at 45.8%.
As to B4, the “Percentage of Positive Cells” value is 56.4%.
B5: the “Percentage of Positive Cells” value is 54.3%.

Another experiment deals with T2, His-tagged monkey TFR1 protein (monkey (Macaca fascicularis)).
T2 construct: Bought protein; The order of the tag and the receptor part is not known; also called fasTFR1-His; ACROBiosystems Cat #: TFR-C524a; not shown: His tag
T2 chain: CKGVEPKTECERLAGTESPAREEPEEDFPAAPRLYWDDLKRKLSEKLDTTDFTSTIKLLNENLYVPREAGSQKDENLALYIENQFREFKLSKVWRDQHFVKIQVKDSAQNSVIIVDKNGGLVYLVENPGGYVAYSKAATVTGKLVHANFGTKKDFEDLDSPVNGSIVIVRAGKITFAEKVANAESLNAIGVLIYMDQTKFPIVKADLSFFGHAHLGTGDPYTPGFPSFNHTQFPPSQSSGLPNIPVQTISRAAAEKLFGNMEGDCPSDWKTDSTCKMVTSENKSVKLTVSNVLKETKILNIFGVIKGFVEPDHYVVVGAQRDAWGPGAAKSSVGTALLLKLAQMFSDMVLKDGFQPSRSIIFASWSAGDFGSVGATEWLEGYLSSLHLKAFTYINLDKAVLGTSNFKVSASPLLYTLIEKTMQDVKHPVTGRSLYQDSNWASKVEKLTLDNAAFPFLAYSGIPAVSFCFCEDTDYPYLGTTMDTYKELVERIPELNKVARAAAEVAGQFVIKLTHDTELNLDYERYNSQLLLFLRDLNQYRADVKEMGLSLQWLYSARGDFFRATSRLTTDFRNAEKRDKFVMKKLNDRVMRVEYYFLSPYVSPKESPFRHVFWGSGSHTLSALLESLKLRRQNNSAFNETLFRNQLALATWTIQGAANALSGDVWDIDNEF
As to the kind of experiment: SPR, Biacore 8K; antibody captured on Protein A chip, fasTFR1-His as analyte; 1:1 Langmuir fit. How it is done:
(§2) Purified anti-TFR1 antibodies was captured on the Protein A chip (Series S Sensor Chip Protein A) for the detection. Purified anti-TFR1 antibodies (1 μg/mL) was loaded at 10 μL/min to bind to hTFR1-His and fasTFR1-His (200 nM). The flow rate was 30 μL/min. The binding and dissociation time were set to 180 seconds and 600 seconds, respectively. The chip was regenerated after the last injection of each titration with a glycine solution (pH 2.0) at […] for 30 seconds.
(§3) As a person of ordinary skill in the art would understand, the same method with appropriate adjustments for parameters (e.g., antibody concentration) was performed for each tested antibody.
(Surface plasmon resonance follows binding to a sensor surface in real time, without labels.)
Broadly, the Kd is the constant that tells how readily two partners part at equilibrium. In general, koff refers to the rate constant with which the complex falls apart. A word on the kon: it is the second-order rate constant of association. For the molecule B1, the Kd is 19.5 nM, the koff is 0.00799 s⁻¹ and the kon worked out at 410000 M⁻¹ s⁻¹.
Consider B4, for which the Kd came out at 2.32 nM, the dissociation rate constant (koff) was determined as 0.000101 s⁻¹ and the kon was 43600 M⁻¹ s⁻¹.
As to B5, the Kd was 1.39 nM, the koff came out at 8.79e-05 s⁻¹ and the kon worked out at 63300 M⁻¹ s⁻¹.

The target in a further experiment is T3, His-tagged human TFR1 (transferrin receptor 1) protein (human, UniProt P02786 89-760).
T3 construct: Bought protein; The order of the tag and the receptor part is not known; also called hTFR1-His; ACROBiosystems Cat #: CD1-H5243; not shown: His tag
T3 sequence (P02786 89-760 limits assumed): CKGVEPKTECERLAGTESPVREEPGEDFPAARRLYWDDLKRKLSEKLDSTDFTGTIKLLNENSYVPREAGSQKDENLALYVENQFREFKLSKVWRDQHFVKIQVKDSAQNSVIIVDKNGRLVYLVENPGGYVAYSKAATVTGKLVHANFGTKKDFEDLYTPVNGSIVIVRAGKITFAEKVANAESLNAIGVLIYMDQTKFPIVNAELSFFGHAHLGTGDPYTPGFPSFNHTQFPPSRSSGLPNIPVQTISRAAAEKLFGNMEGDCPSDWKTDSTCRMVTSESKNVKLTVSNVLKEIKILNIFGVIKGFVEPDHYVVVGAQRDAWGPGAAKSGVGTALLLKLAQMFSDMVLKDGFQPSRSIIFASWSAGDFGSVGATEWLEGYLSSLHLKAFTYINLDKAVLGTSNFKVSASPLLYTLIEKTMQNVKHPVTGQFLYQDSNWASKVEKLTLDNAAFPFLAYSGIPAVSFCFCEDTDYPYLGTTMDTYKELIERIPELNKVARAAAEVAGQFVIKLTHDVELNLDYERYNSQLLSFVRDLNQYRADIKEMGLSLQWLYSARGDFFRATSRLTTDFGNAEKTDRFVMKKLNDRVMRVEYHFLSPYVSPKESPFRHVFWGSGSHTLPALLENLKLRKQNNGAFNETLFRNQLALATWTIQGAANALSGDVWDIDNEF
As to the kind of experiment: BLI (Octet) binning; hTFR1-His captured on HIS1K; ratio = binding of analyte 2 / binding of analyte 1; competitor (analyte 1, bound first): 23B8. How it is done: (§4) Relative positions of target protein epitope between a pair of purified anti-TFR1 antibodies were analyzed by Biolayer Interferometry (BLI) using ForteBio Octet system at 30° C. 1×HBS-EP+ buffer (10 mM 4-(2-hydroxyethyl)-1-piperazineethanesulfonic acid (HEPES), 150 mM NaCl, 3 mM ethylenediaminetetraacetic acid (EDTA) and 0.05% P20, pH7.4) diluted from HBS-EP+ buffer (10×) was used as the running buffer throughout the experiment. About 10 μg/mL of hTFR1-His protein was captured by HIS1K (Anti-Penta-HIS) for 200 seconds, and 200 nM of antibody (analyte 1) was injected at a flow rate of 30 μL/min to bind the ligand. Another antibody (analyte 2) was injected under the same conditions to determine whether the binding of different antibodies interfered with each other. The binding time was 300 seconds for each antibody.
(§5) The binding value of each antibody was obtained using Data Analysis HT 12.0. To quantify the interference of one antibody binding to another, a binding ratio was calculated to compare each pair of antibodies. The binding ratio is defined as the binding value of the second antibody (analyte 2), divided by the binding value of the first antibody (analyte 1).
For orientation: In BLI a coated tip is dipped into the sample, and binding shifts an interference pattern.
As for B1, the binding ratio worked out at 0.1.
Take B2: the binding ratio stood at 0.7.
Turning to B3, the binding ratio was 0.6.
Take B4: the binding ratio worked out at 0.
On to B5, for which the binding ratio is 0.

For another experiment, the target named is T3, His-tagged human TFR1 (transferrin …). As to the kind of experiment: BLI (Octet) binning; hTFR1-His captured on HIS1K; ratio = binding of analyte 2 / binding of analyte 1; competitor (analyte 1, bound first): JR141-N. How it is done:
as §4, §5
Take B1: the binding ratio was 1.1.
With B2, the binding ratio is 0.
Regarding B3, the binding ratio came to 0.8.
For the molecule B4, the binding ratio turned out to be 0.3.
The same measure, in the same setting: to B5 belongs 0.2.

A further experiment shares this target. As to the kind of experiment: BLI (Octet) binning; hTFR1-His captured on HIS1K; ratio = binding of analyte 2 / binding of analyte 1; competitor (analyte 1, bound first): 24G5. How it is done:
as §4, §5
Turning to B1, the binding ratio was determined as 0.3.
Consider B2, for which the binding ratio came to 0.
As to B3, the binding ratio is 0.2.
Same read-out and setting: to B4 belongs 0.1; to B5, 0.

The target is the same in a further experiment. As to the kind of experiment: BLI (Octet) binning; hTFR1-His captured on HIS1K; ratio = binding of analyte 2 / binding of analyte 1; competitor (analyte 1, bound first): 24C9. As to the method: as §4, §5
As for B1, the binding ratio was 1.4.
In the case of B2, the binding ratio is 1.1.
In the case of B3, the binding ratio was 0.
B4: the binding ratio is 0.1.
Same read-out and setting: to B5 belongs 0.

A further experiment has as its target T4, Macaca fascicularis (crab-eating macaque) TFR1 expressed on CHO-S cells (Macaca fascicularis (crab-eating …)).
T4 construct: CHO-S cells transfected with a vector expressing fasTFR1; also called fasTFR1; CHO-S-fasTFR1 cells
T4 chain: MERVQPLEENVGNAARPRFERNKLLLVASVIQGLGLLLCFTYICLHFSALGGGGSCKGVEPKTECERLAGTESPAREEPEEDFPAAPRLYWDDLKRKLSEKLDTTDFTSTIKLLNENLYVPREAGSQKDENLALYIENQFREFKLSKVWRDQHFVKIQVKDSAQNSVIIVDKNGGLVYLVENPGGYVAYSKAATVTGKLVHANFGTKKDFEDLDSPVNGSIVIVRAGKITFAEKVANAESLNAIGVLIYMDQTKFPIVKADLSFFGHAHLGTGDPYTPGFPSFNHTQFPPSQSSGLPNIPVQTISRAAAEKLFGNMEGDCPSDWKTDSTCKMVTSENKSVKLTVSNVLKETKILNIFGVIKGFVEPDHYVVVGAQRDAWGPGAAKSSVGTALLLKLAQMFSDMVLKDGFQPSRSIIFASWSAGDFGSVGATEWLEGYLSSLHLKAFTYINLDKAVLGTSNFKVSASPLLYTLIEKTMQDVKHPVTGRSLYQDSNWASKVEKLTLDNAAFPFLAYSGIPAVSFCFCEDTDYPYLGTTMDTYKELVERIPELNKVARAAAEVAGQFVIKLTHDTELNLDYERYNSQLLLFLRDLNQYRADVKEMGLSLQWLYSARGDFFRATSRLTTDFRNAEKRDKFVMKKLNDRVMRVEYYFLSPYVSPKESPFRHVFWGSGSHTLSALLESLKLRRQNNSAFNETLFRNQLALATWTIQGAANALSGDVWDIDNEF
As to the kind of experiment: flow cytometry on CHO-S-fasTFR1 cells; anti-hIgG-Fc Alexa Fluor 647 secondary. As to the method:
as §1
For the molecule B1, the “Percentage of Positive Cells” value worked out at 39.6%.
Same read-out and setting: to B2 belongs 37.2%; to B4, 50.9%; to B5, 51.2%.

The target of the next experiment is T3, His-tagged human TFR1 (transferrin …). As to the kind of experiment: BLI (Octet) binning; hTFR1-His captured on HIS1K; ratio = binding of analyte 2 / binding of analyte 1; competitor (analyte 1, bound first): 24A1. As to the method: as §4, §5
With B1, the binding ratio was 0.2.
Regarding B2, the binding ratio was determined as 0.
For B3, the binding ratio is 0.1.
For the molecule B4, the binding ratio was 0.1.
The same measure, in the same setting: to B5 belongs 0.

The target is the same in the next experiment. The experiment is described as follows: SPR, Biacore 8K; antibody captured on Protein A chip, hTFR1-His as analyte; 1:1 Langmuir fit. As to the method:
as §2, §3
Take B1: the Kd was 8.73 nM, the koff turned out to be 0.000132 s⁻¹ and the kon is 15100 M⁻¹ s⁻¹.
B3 registered a Kd of 14.3 nM, a koff of 0.000383 s⁻¹ and a kon of 26800 M⁻¹ s⁻¹.
As to B4, the affinity, expressed as Kd, was 2.93 nM; the koff came out at 7.68e-05 s⁻¹; the kon turned out to be 26200 M⁻¹ s⁻¹.
In turn, B5 had a Kd of 2.05 nM, a koff of 8.68e-05 s⁻¹ and a kon of 42400 M⁻¹ s⁻¹.
